{"source": "paper PMC4837182", "key": {"[1]": {"target": "recombinant Plasmodium falciparum Hsp70-1 (PfHsp70-1), full length (Plasmodium falciparum)", "assay": "SPR; ProteOn XPR36, ligand amine-coupled to GLC chip, analyte 125-2000 nM at 50 μl/min, PBS-Tween with 20 mM EDTA pH 7.4, 25 °C, Langmuir fit; with 5 mM ATP"}, "[2]": {"target": "recombinant Plasmodium falciparum Hsp70-1 (PfHsp70-1), full length (Plasmodium falciparum)", "assay": "SPR; ProteOn XPR36, ligand amine-coupled to GLC chip, analyte 125-2000 nM at 50 μl/min, PBS-Tween with 20 mM EDTA pH 7.4, 25 °C, Langmuir fit; with 5 mM ADP"}, "[3]": {"target": "recombinant Plasmodium falciparum Hsp70-1 (PfHsp70-1), full length (Plasmodium falciparum)", "assay": "SPR; ProteOn XPR36, ligand amine-coupled to GLC chip, analyte 125-2000 nM at 50 μl/min, PBS-Tween with 20 mM EDTA pH 7.4, 25 °C, Langmuir fit; no nucleotide"}}}
{"substance": "recombinant Plasmodium falciparum Hsp70-z (PfHsp70-z) (natural protein)", "values": [{"measurement": "Kd", "setting": "[1]", "result": 0.0241, "unit": "µM"}, {"measurement": "koff", "setting": "[1]", "result": "2.42e-05", "unit": "s⁻¹"}, {"measurement": "kon", "setting": "[1]", "result": 997, "unit": "M⁻¹ s⁻¹"}, {"measurement": "Kd", "setting": "[2]", "result": 12.1, "unit": "µM"}, {"measurement": "koff", "setting": "[2]", "result": "3.61e-05", "unit": "s⁻¹"}, {"measurement": "kon", "setting": "[2]", "result": 298, "unit": "M⁻¹ s⁻¹"}, {"measurement": "Kd", "setting": "[3]", "result": 59.8, "unit": "µM"}, {"measurement": "koff", "setting": "[3]", "result": "2.96e-05", "unit": "s⁻¹"}, {"measurement": "kon", "setting": "[3]", "result": 0.495, "unit": "M⁻¹ s⁻¹"}]}
